Reference: US20230227406

Molecular target: PTEN (substrate in the in vitro ubiquitination reaction) (UniProt P60484)
Sequence (P60484 whole entry): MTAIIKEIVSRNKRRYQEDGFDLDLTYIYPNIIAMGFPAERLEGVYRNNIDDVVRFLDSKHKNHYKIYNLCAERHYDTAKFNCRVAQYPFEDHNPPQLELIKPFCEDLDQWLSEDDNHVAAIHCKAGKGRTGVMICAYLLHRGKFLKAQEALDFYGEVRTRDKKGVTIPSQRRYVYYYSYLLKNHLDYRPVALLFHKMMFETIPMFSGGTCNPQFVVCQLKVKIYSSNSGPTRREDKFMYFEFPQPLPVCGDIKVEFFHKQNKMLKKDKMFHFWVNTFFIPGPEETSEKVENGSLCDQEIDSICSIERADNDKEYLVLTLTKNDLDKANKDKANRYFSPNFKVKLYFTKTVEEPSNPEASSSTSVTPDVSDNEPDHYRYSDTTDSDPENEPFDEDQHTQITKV

WWP1 ligase (recombinant, Ubiquigent #63-0034-025)
in vitro ubiquitination reaction, TMT LC-MS/MS of ubiquitin sites on PTEN: Specific ubiquitin sites on PTEN demonstrate greater occupancy (e.g., K237 and K342) when K27-only ubiquitin is used in the reaction vs wild type ubiquitin | in vitro ubiquitination reaction, western blot using an anti-ubiquitin antibody: in the presence of K27 only ubiquitin, PTEN substrate ubiquitin is preferred. PTEN is readily ubiquitinated with non-chain forming ubiquitin
